# Measurements: paper PMC11661314 (bioRxiv, 2024)
# Where a chain is given by its changes, count along the chain named.
# T1: E. coli (UTI89) FimH lectin domain truncate (Escherichia coli UTI89, strain)
# T1 chain: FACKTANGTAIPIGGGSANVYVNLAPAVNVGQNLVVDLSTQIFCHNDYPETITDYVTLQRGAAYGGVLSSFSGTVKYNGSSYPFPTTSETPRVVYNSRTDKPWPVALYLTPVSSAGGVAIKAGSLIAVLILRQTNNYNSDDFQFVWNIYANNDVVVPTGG
# T2: K. pneumoniae (TOP52) FimH lectin domain truncate (Klebsiella pneumoniae TOP52, strain)
# T2 chain: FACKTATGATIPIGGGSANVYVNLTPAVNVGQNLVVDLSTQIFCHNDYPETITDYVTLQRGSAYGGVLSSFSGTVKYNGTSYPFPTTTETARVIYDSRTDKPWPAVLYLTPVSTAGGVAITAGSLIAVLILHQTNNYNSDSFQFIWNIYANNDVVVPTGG
# T3: E. coli FmlH lectin domain (Escherichia coli UTI89 (strain from PDB …))
# T3 chain: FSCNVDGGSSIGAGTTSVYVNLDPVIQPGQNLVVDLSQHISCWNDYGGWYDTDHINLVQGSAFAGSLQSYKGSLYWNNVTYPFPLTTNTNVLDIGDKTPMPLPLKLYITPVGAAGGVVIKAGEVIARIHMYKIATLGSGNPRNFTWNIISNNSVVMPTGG
# B1: Ec3 B7 mAb (chimeric murine/human IgG) (antibody, V domains shown)
# VH: EVQLQQPGAELVRPGASVKMSCKASGYTFTIYNLHWVKQTPRQGLEWIGTIYPGDGDTSYNQKFKGKATLTVDKSSSTAYMQLSNLTSEDSAVYFCAREGDYGPWFAYWGQGTLVTVSA
# VL: QIVLTQSPAIMSASPGEKVTMTCRASSSVSSSYLHWYQQKSGASPKLWIYSSSNLASGVPARFSGSGSGTSYSLTINSVEAEDAATYYCQHYGSYPLTFGGGTKLEIK
# B2: Kp2 2C07 mAb (chimeric murine/human IgG) (antibody, V domains shown)
# VH: EVKLVESGEGLVKPGGSLKLSCAASGFTFSSYAMSWVRQTPEKRLDWVAYISSGGDHIYYADTVKGRFTISRDNARNTLYLQMSSLKSEDTAMYYCTRDTGYYVSRYFDVWGTGTTVTVSS
# VL: DIVMTQSQKFMSTSVGDRVSVTCKASQNVVTNVAWYQQKSGQSPKVVIYSASFRSSGVPDRFTGSGSGTDFTLTISNVQSEDLAEYFCHQYNSHPLTFGGGTKLEIK
# B3: Kp1 2H04 mAb (chimeric murine/human IgG) (antibody, V domains shown)
# VH: EVQLQQSGAELVKPGASVKLSCKASGYTFTSYWMHWVKQRPGQGLEWIGLIHPNSSSTYYNEKFKTRATLTVDKSSSTAYMQLSSLTSEDSAVYYCARLGYGNSYWYFDVWGTGTTVTVSS
# VL: QIVLTQSPALMAASPGEKVTITCSVSSSISSSNLHWYQQKSETSPKPWIYGTSNLASGVPIRFSGSGSGTSYSLTISSLEAEDAATYYCQQWRSYPWTFGGGTKLEIK
# B4: Ec1 F7 mAb (chimeric murine/human IgG) (antibody, V domains shown)
# VH: EVQLQQPGPVLVKPGPSVKISCKASGFTFTDYFIHWVKQSHGKSLEWIGLVSPYNGGTYYNQQFKGKATLTVDTSSSTAYMDLNSLTSEDSAVYYCTRLLRGYWYFDVWGTGTTVTVSS
# VL: B3 VL with S30G, I61V, L79M, R93S, S94T, W97Y
# Experiments:
# Experiment in all cases: ELISA
# [1] = target: T1, E. coli (UTI89) FimH lectin domain …
# [2] = target: T2, K. pneumoniae (TOP52) FimH lectin …
# [3] = target: T3, E. coli FmlH lectin domain
Binder,binding result [1],binding result [2],binding result [3]
B1,binds,,
B2,binds,binds,no binding
B3,binds,binds,
B4,binds,binds,
